In patent US20110319869A1 (US Dept. of Health and Human Services, published 2011):

The molecules below were run against T1, HLA-A2 molecule (human) (assay: T2 cell binding assay: flow cytometry of surface HLA-A2 with anti-HLA-A2 mAb after incubation with peptide (50 µg/ml)).
T1 construct: also called HLA-A2 on T2 cells (174CEM-T2; T2A2 cells)
Protocol: In this assay, increased stability (accumulation) of HLA-A2 molecules on the surface of T2 cells as a consequence of peptide binding is measured by increased binding of antibody directed against HLA-A2 molecule. Briefly, 1×10⁶ cells in serum-free Iscove's modified Dulbecco's complete medium were incubated with peptides at a concentration of 50 μg/ml in 24-well culture plates at 37° C. in 5% CO₂. Flow cytometry for peptide binding was performed using T2 cells and single-color analysis. After cells were washed three times in DPBS, as described above, they were incubated for 1 h with a 1:100 dilution of HLA-A2—specific MAb (One Lambda, Inc.) per 10⁶ cells. UPC-10 (Cappel/Organon Teknika) was used as isotype control. The cells were then washed three times and incubated with 1:100 dilution of FITC-labeled anti-mouse IgG (BD Biosciences). Analysis was conducted with the FACScan, as described above. Cells were maintained on ice during all cell preparation and staining. […]

Row | Molecule | T2 binding (relative fluorescence)
1 | ATWGQDVTSV (Synthetic 10-mer from the non-VNTR region of MUC-1) [MUC-1 peptide P-92 (native), ATWGQDVTSV] | 740 relative fluorescence
2 | VLVALAIVYL [MUC-1 peptide P-1169, VLVALAIVYL] | 369 relative fluorescence
3 | WGQDVTSVPV [MUC-1 peptide P-94, WGQDVTSVPV] | 591 relative fluorescence
4 | REGTINVHDV [MUC-1 peptide P-1108, REGTINVHDV] | 482 relative fluorescence
5 | GTQSPFFLLL [MUC-1 peptide P-4, GTQSPFFLLL] | 467 relative fluorescence
6 | LAFREGTINV [MUC-1 peptide P-1105, LAFREGTINV] | 461 relative fluorescence
7 | TLASHSTKTD [MUC-1 peptide P-1104, TLASHSTKTD] | 442 relative fluorescence
8 | LQRDISEMFL [MUC-1 peptide P-1069, LQRDISEMFL] | 433 relative fluorescence
9 | ALLVLVCVLV [MUC-1 peptide P-1162, ALLVLVCVLV] | 431 relative fluorescence
10 | TISDVSVSDV [MUC-1 peptide P-1135, TISDVSVSDV] | 422 relative fluorescence

Biological target: T1, HLA-A2 molecule
Assay: as above
Remark: another data set of the same source
Protocol: (§1) In this assay, increased stability (accumulation) of HLA-A2 molecules on the surface of T2 cells as a consequence of peptide binding is measured by increased binding of antibody directed against HLA-A2 molecule. Briefly, 1×10⁶ cells in serum-free Iscove's modified Dulbecco's complete medium were incubated with peptides at a concentration of 50 μg/ml in 24-well culture plates at 37° C. in 5% CO₂. Flow cytometry for peptide binding was performed using T2 cells and single-color analysis. After cells were washed three times in DPBS, as described above, they were incubated for 1 h with a 1:100 dilution of HLA-A2—specific MAb (One Lambda, Inc.) per 10⁶ cells. UPC-10 (Cappel/Organon Teknika) was used as isotype control. The cells were then washed three times and incubated with 1:100 dilution of FITC-labeled anti-mouse IgG (BD Biosciences). Analysis was conducted with the FACScan, as described above. Cells were maintained on ice during all cell preparation and staining.

Row | Molecule | T2 binding (relative fluorescence)
11 | ATWGQDVTSV (Synthetic 10-mer from the non-VNTR region of MUC-1) [MUC-1 peptide P-92 (native), ATWGQDVTSV] | 510 relative fluorescence values
12 | ALWGQDVTSV (also called L-93; MUC-1 peptide) [MUC-1 agonist peptide P-93L, ALWGQDVTSV] | 821 relative fluorescence values

Further lines, results first:

Row | T2 binding (relative fluorescence) | Molecule
13 | 280 relative fluorescence values | AIWGQDVTSL [MUC-1 peptide analogue I-93/L-101]
14 | 736 relative fluorescence values | ALWGQDVTSL [MUC-1 peptide analogue L-93/L-101]
15 | 723 relative fluorescence values | AMWGQDVTSV [MUC-1 peptide analogue M-93]
16 | 325 relative fluorescence values | AMWGQDVTSL [MUC-1 peptide analogue M-93/L-101]
17 | 823 relative fluorescence values | AIWGQDVTSV (also called I-93) [MUC-1 peptide analogue P-93I]

Each molecule was assayed against T1, HLA-A2 molecule (assay: T2 cell binding assay: flow cytometry of surface HLA-A2 with anti-HLA-A2 mAb; negative control).

Row | Molecule | T2 binding (relative fluorescence) (relative fluorescence values)
18 | CEA CAP-7 (HLA-A3 binding peptide) | 200

These molecules were tested against T1, HLA-A2 molecule (assay: T2 cell binding assay, flow cytometry with anti-HLA-A2 mAb).
Protocol: as §1
The primary amino acid sequence of human MUC-1 was analyzed for consensus motifs for novel HLA-A2 binding peptides.

Row | Molecule | binding result
19 | YRPGENLNL [NCA peptide, YRPGENLNL] | no binding (tested: 50 µg/ml peptide)
